The source of these data is patent US20250326823A1.

Some results are limits rather than exact numbers.

What all share (assay): cell-based or functional assay
Test [1] addresses SARS-CoV-2 KP.2 spike (S) protein (SARS-CoV-2).
The target in test [2] is SARS-CoV-2 KP.3.1.1 spike (S) protein (SARS-CoV-2).
Test [3] deals with SARS-CoV-2 KP.2.3 spike (S) protein (SARS-CoV-2).
Test [4] addresses SARS-CoV-2 KP.3 spike (S) protein (SARS-CoV-2).
Test [5] addresses SARS-CoV-2 LB.1 spike (S) protein (SARS-CoV-2).
The target of test [6] is SARS-CoV-2 EG.5.1 spike (S) protein (SARS-CoV-2).
The target of test [7] is SARS-CoV-2 BA.1 spike (S) protein (SARS-CoV-2).
Test [8] has as its target SARS-CoV-2 B.1.617.2 spike (S) protein (SARS-CoV-2).
In test [9] the target is SARS-CoV-2 B.1.526 spike (S) protein (SARS-CoV-2).
Test [10] deals with SARS-CoV-2 P.1 spike (S) protein (SARS-CoV-2).
Test [11] concerns the target SARS-CoV-2 XBB.1.5 spike (S) protein (SARS-CoV-2).
Test [12] deals with SARS-CoV-2 HV.1 spike (S) protein (SARS-CoV-2).
Test [13] concerns the target SARS-CoV-2 XBB.1.16.6 spike (S) protein (SARS-CoV-2).
Test [14] addresses SARS-CoV-2 BA.4/5 spike (S) protein (SARS-CoV-2).
Test [15] concerns the target SARS-CoV-2 B.1.525 spike (S) protein (SARS-CoV-2).
Test [16] concerns the target SARS-CoV-2 B.1.429 spike (S) protein (SARS-CoV-2).
Test [17] concerns the target SARS-CoV-2 spike (S) protein, B.1.617.2 (SARS-CoV-2).
In test [18] the target is SARS-CoV-2 P.2 spike (S) protein (SARS-CoV-2).
Test [19] addresses SARS-CoV-2 HK.3 spike (S) protein (SARS-CoV-2).
Test [20] deals with SARS-CoV-2 B.1.1.7 spike (S) protein (SARS-CoV-2).
For test [21], the target named is SARS-CoV-2 CH.1.1 spike (S) protein (SARS-CoV-2).
The target of test [22] is SARS-CoV-2 B.1.617.1 spike (S) protein (SARS-CoV-2).
Test [23] has as its target SARS-CoV-2 spike (S) protein, B.1.351 (SARS-CoV-2).
Test [24] has as its target SARS-CoV-2 JN.1 spike (S) protein (SARS-CoV-2).
The target of test [25] is SARS-CoV-2 B.1.621 spike (S) protein (SARS-CoV-2).
For test [26], the target named is SARS-CoV-2 JD.1.1 spike (S) protein (SARS-CoV-2).
In test [27] the target is SARS-CoV-2 XBB spike (S) protein (SARS-CoV-2).
Test [28] addresses SARS-CoV-2 XBB.2.3.2 spike (S) protein (SARS-CoV-2).
Test [29] addresses SARS-CoV-2 BA.2.86 spike (S) protein (SARS-CoV-2).
For test [30], the target named is SARS-CoV-2 B.1.351 spike (S) protein (SARS-CoV-2).
Test [31] concerns the target SARS-CoV-2 JF.1 spike (S) protein (SARS-CoV-2).
Test [32] deals with SARS-CoV-2 FL.1.5.1 spike (S) protein (SARS-CoV-2).
Test [33] concerns the target SARS-CoV-2 B.1.427 spike (S) protein (SARS-CoV-2).
Test [34] concerns the target SARS-CoV-2 spike (S) protein, Omicron sublineage BQ.1.1 (SARS-CoV-2).
Test [35] addresses SARS-CoV-2 Omicron sublineage BF.7 spike (S) protein (SARS-CoV-2).
Test [36] has as its target SARS-CoV-2 spike (S) protein, Omicron sublineage XBB.1.5 (SARS-CoV-2).
Test [37] addresses SARS-CoV-2 spike (S) protein, Omicron sublineage XBB (SARS-CoV-2).
In test [38] the target is SARS-CoV-2 Omicron sublineage CH.1.1 spike (S) protein (SARS-CoV-2).
Test [39] has as its target SARS-CoV-2 spike (S) protein, Omicron sublineage BA.2.75.2 (SARS-CoV-2).
Test [40] deals with SARS-CoV-2 spike (S) protein, Omicron sublineage BA.4/5 (SARS-CoV-2).

ADG20 (antibody): the pseudovirus neutralization IC50 in test [1], in test [2], in [3], in [4] and in [5] was more than 67 nM each time. In addition, the pseudovirus neutralization IC80 in test [1], in [2], in test [3], in test [4] and in test [5] was more than 67 nM throughout.

As to AZD3152 (antibody), the pseudotyped neutralization potency IC50 in [6] is more than 66.7 nM; in test [13], more than 66.7 nM; in test [28], 0.0806 nM; in test [29], 1.8 nM; in [32], more than 66.7 nM. In addition, the pseudotyped neutralization potency IC80 is more than 66.7 nM in [6]; more than 66.7 nM in test [13]; 0.488 nM in test [28]; 5.4 nM in [29]; more than 66.7 nM in test [32]. The pseudovirus neutralization IC50 in [6] is more than 10 µg/mL; in test [7], 0.012 µg/mL; in test [8] it was 0.09 µg/mL; in [9], 0.049 µg/mL; in [10], 0.047 µg/mL; in [11] it was 0.016 µg/mL. Further, the pseudovirus neutralization IC50 was more than 10 µg/mL in test [12]; more than 10 µg/mL in test [13]; 0.03 µg/mL in test [14]; 0.1 µg/mL in test [15]; 0.082 µg/mL in test [16]; 0.02 µg/mL in test [18]. In addition, the pseudovirus neutralization IC50 is more than 10 µg/mL in test [19]; 0.093 µg/mL in [20]; 0.045 µg/mL in [21]; 0.041 µg/mL in test [22]; 0.766 µg/mL in test [24]; 0.04 µg/mL in test [25]. For the same substance, the pseudovirus neutralization IC50 in test [26] is more than 10 µg/mL; in [27], 0.011 µg/mL; in test [28], 0.025 µg/mL; in test [29], 0.053 µg/mL; in [30] it was 0.024 µg/mL; in [31] it was more than 10 µg/mL. Moreover, the pseudovirus neutralization IC50 is more than 10 µg/mL in [32] and 0.09 µg/mL in [33]. The IC50, pseudotyped neutralization potency in test [17] was determined as 0.281 nM; in test [23], 0.023 nM. Besides, the results for the IC80, pseudotyped neutralization potency in test [17] and in [23] were 0.518 nM and 0.041 nM, respectively.

Regarding LY1404 (antibody), the pseudotyped neutralization potency IC50 in [34] was more than 67 nM; in test [35], 0.02 nM; in test [36] it was more than 67 nM; in test [37] it was more than 67 nM; in test [38] it was more than 67 nM; in [39] it was 0.04 nM. Also, the pseudotyped neutralization potency IC50 in [40] turned out to be 0.01 nM. Also, the pseudotyped neutralization potency IC80 is more than 67 nM in [34]; 0.18 nM in test [35]; more than 67 nM in test [36]; more than 67 nM in test [37]; more than 67 nM in test [38]; 0.14 nM in test [39]. The pseudotyped neutralization potency IC80 in test [40] came to 0.02 nM.
